Blank lines part the entries; values can stand above or below the substance they belong to.
Tests used:
[1] = molecular target: LFA-1 (CD11a/CD18) on cells (human) (UniProt P20701); experiment: JY cell adhesion to coated shICAM-R, mAb 10 µg/ml
[2] = molecular target: LFA-1 (CD11a/CD18) on cells (human) (UniProt P20701); experiment: cell adhesion to coated shICAM-R, peptide 1-2 mg/ml
[3] = molecular target: LFA-1 (CD11a/CD18) on cells (human) (UniProt P20701); experiment: neutrophil adhesion to coated ICAM-R/Ig, mAb 15 µg/ml

Chain of LFA-1 (CD11a/CD18) on cells (human) (P20701 26-1170, chain 1 of 2): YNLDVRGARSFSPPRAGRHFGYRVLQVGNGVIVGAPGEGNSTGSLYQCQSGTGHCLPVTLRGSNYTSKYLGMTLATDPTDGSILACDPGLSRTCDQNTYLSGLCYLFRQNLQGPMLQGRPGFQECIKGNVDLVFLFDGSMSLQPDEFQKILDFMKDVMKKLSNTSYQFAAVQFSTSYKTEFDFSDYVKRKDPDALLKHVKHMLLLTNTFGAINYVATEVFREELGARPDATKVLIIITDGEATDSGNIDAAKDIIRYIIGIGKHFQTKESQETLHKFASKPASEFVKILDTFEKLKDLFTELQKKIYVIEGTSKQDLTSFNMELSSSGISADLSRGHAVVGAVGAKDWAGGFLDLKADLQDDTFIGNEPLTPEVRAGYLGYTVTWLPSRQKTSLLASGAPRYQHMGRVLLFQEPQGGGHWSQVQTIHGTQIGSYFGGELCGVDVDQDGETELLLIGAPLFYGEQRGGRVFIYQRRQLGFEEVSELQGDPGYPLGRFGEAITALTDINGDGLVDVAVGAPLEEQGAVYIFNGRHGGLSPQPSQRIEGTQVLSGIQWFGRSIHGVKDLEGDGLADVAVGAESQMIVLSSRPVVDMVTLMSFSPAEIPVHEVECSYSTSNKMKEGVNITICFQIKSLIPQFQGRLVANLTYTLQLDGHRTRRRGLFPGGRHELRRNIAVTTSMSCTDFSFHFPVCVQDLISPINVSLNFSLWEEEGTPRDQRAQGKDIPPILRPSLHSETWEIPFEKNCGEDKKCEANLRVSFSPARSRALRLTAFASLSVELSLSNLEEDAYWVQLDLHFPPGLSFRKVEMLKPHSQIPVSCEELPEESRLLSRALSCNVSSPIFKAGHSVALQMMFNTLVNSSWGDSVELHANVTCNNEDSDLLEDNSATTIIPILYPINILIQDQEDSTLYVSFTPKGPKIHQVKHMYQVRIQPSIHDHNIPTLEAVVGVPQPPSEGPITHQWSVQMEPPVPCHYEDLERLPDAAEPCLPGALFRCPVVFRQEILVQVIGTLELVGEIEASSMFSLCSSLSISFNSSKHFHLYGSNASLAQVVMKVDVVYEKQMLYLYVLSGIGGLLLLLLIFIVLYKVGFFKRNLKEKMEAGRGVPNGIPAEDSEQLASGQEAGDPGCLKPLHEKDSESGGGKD
Chain of LFA-1 (CD11a/CD18) on cells (human) (P05107 23-769, chain 2 of 2, further chain): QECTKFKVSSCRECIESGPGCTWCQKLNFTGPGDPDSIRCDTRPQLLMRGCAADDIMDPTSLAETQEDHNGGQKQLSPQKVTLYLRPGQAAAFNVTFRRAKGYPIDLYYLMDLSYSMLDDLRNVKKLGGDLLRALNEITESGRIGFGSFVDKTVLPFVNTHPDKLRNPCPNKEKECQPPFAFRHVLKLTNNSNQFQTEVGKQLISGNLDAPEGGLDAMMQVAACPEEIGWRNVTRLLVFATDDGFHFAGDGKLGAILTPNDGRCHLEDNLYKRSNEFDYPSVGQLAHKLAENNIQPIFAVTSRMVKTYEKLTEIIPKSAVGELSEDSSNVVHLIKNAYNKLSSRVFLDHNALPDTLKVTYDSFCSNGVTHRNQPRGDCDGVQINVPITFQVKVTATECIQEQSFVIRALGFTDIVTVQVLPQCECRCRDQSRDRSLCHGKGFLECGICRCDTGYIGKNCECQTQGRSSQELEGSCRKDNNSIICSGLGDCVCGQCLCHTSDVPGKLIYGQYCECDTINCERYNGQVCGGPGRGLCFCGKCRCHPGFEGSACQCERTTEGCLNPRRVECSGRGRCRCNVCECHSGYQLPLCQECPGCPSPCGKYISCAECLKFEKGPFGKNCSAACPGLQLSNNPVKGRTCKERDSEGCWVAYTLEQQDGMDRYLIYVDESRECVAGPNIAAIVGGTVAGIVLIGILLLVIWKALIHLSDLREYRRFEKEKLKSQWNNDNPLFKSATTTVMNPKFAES

Inhibition (%) of CD18-dependent JY cell binding [1]: 100%
Substance: 60.3 (antibody)

% Inhibition CD18-Dependent Binding (SKW3) [2]: 26%
Substance: ICAM-R peptide 72-76 (NGSQI)

% inhibition of neutrophil binding to ICAM-R [3]: 50%
Substance: TS1/22 (antibody)

From patent publication US20010029293A1
